Data from patent US20220002363A1, “COMPOSITIONS AND METHODS FOR TREATING PULMONARY DISEASE” (United States Government As Represented By The Department …, priority 2020, published 2022).
“Also recorded” adds a separate entry of the source.

Test system: LPS-treated C57BL/6 mice
Experiment: Oropharyngeal LPS lung injury model in C57BL/6 mice treated with mut-sFasL
Type: in vivo, mouse
Conditions: for pro-injury or pro-inflammatory effects: normal lungs / administered 24 hours after intratracheal LPS, any dose
Procedure: FIGS. 5A-E show the effects of mut-sFasL on markers of lung inflammation in LPS-treated mice. C57BL/6 mice received oropharyngeal instillations of either PBS or LPS, 2.5 μg/mL. Four hours later some of the mice received oropharyngeal instillations of PBS or mut-sFasL at concentrations of 10 and 100 ng/g and were euthanized 24 hours after the initial LPS/PBS instillations (“early” group). Other mice received the PBS or mut-sFasL (same dose range) 24 hours after LPS/PBS and were euthanized 48 hours after the original LPS instillation (“late” group). N=6 for the groups. In the “late” group, treatment with 100 ng/g mut-sFasL reduced BAL total cells (FIG. 5A), lung homogenate MPO activity (FIG. 5B), and the BAL concentrations of TNF-α, MIP-1β and MCP-1 (FIGS. 5C-E). Data were analyzed by 2-way ANOVA with Dunnet's post hoc analysis; comparisons made to 0 ng/mL for each condition. Data are reported as box plots, in which the box depicts the 25th to 75th percentiles and the lines the min to max range. *=P<0.05; **=P<0.01, ***P<0.001.
FIGS. 6A-D show the effects of mut-sFasL in LPS treated mice. C57BL/6 mice received oropharyngeal instillations of either PBS, or LPS, 2.5 μg/mL. Four hours later some of the mice received oropharyngeal instillations of PBS or mut-sFasL at concentrations of 10 and 100 ng/g and were euthanized 24 hours after the initial LPS/PBS instillations (“early” group). Other mice received the PBS or mut-sFasL (same dose range) 24 hours after LPS/PBS and were euthanized 48 hours after the original LPS instillation (“late” group). N=6 for all groups. […] The administration of mut-sFasL had no effect total BAL protein (FIG. 6B), BAL IgM (FIG. 6C) or total lung homogenate caspase 3/7 activity (FIG. 6D). Data are reported as box plots, in which the box depicts the 25th to 75th percentiles and the lines the min to max range. Data were analyzed by 2-way ANOVA with Dunnett's post hoc analysis; comparisons were made to 0 ng/mL for each condition.
Animal studies. Mice were housed in conventional cages with ad libitum access to tap water and standard chow, in humidity-controlled (50%) and temperature-controlled (22° C.-23° C.) rooms with 12 hours/12 hours light/dark cycles. In the morning, male C57BL/6J mice (Jackson Laboratories, Bar Harbor Me.) weighing […] were anesthetized with 4% inhaled isoflurane and randomized to treatment for one oropharyngeal instillations of either PBS, or LPS, 2.5 μg/mL (Sigma-Aldrich, St. Louis Mo.) (Time=0 hr). The PBS group was instilled first to avoid cross-contamination with LPS. The mice were allowed to recover from anesthesia, given full access to food and water. […] Some of the mice received oropharyngeal instillations of mut-sFasL at 4 hr and were euthanized at 24 hr (“early” group). Other mice received oropharyngeal mut-sFasL at 24 hours and were euthanized at 48 hr (“late” group). In both cases, mut-sFasL doses were 0, 30 and 100 ng/mL. The number of mice used per group was 6, and the total number of mice was 54.
Following instillations, the mice were monitored for signs of discomfort every 15 minutes during the first hour, and then every four hours during daytime. The primary monitoring parameters were loss of prone posture, loss of movement with mild physical stimulation, weight loss of >20% (weight was measured once per day) and severe respiratory distress. Secondary monitoring parameters included ruffled fur, nasal or ocular discharge and an abnormal respiratory pattern. The presence of one major parameter or two minor parameters was considered an indication for euthanasia, but no mice met these criteria. […]

[1] = LPS, 24 hr (early group), mut-sFasL 30
[2] = LPS, 24 hr (early group), mut-sFasL 100
[3] = LPS, 48 hr (late group), mut-sFasL 30
[4] = LPS, 48 hr (late group), mut-sFasL 100

B1: mut-sFasL: mutant sFasL molecule in which 8 charged amino acids in the 26 amino acid stalk region were changed to alanine (protein)
chain: QLFALQAALAALAASTSQMATASSLAKQIGHPSPPPEKKELRKVAHLTGKSNSRSMPLEWEDTYGIVLLSGVKYKKGGLVINETGLYFVYSKVYFRGQSCNNLPLSHKVYMRNSKYPQDLVMMEGKMMSYCTTGQMWARSSYLGAVFNLTSADHLYVNVSELSLVNFEESQTFFGLYKL
- BAL cytokine concentration IL-1β [1]: 14.3 ± 10.6
- BAL cytokine concentration KC [1]: 118.4 ± 43.7
- BAL cytokine concentration MIP-1α [1]: 47.9 ± 10.6
- BAL cytokine concentration MIP-2 [1]: 78.0 ± 28.1
- BAL cytokine concentration IL-1β [2]: 18.6 ± 5.5
- BAL cytokine concentration KC [2]: 154.4 ± 94.3
- BAL cytokine concentration MIP-1α [2]: 85.3 ± 20.0
- BAL cytokine concentration MIP-2 [2]: 124.1 ± 29.1
- BAL cytokine concentration IL-1β [3]: 37.8 ± 23.3
- BAL cytokine concentration KC [3]: 113.2 ± 55.8
- BAL cytokine concentration MIP-1α [3]: 154.5 ± 78.7
- BAL cytokine concentration MIP-2 [3]: 146.7 ± 72.7
- BAL cytokine concentration IL-1β [4]: 44.5 ± 23.1
- BAL cytokine concentration KC [4]: 136.9 ± 51.9
- BAL cytokine concentration MIP-1α [4]: 153.9 ± 42.4
- BAL cytokine concentration MIP-2 [4]: 135.7 ± 29.9
- BAL IgM (LPS-induced increase): did not affect; also recorded: had no effect
- BAL total protein (LPS-induced increase): did not affect; also recorded: had no effect
- lung homogenate caspase-3/7 activity (LPS-induced increase): did not affect; also recorded: had no effect
- BAL IL-1β (in words) (LPS-treated mice): increase
- BAL KC (in words) (LPS-treated mice): not affected
- BAL MIP-1α (in words) (LPS-treated mice): increase
- BAL MIP-2 (in words) (LPS-treated mice): not affected
- weight loss (LPS-treated mice, percent change from initial weight): not affected; also recorded: Weight loss was similar regardless of treatment
- BAL cytokine concentration IL-1β (PBS group, mut-sFasL 30): 0.2 ± 0.0
- BAL cytokine concentration KC (PBS group, mut-sFasL 30): 1.2 ± 0.6
- BAL cytokine concentration MIP-1α (PBS group, mut-sFasL 30): 0.08 ± 0.03
- BAL cytokine concentration MIP-2 (PBS group, mut-sFasL 30): 0.1 ± 0.0
- BAL cytokine concentration IL-1β (PBS group, mut-sFasL 100): 0.2 ± 0.1
- BAL cytokine concentration KC (PBS group, mut-sFasL 100): 1.9 ± 0.9
- BAL cytokine concentration MIP-1α (PBS group, mut-sFasL 100): 0.29 ± 0.28
- BAL cytokine concentration MIP-2 (PBS group, mut-sFasL 100): 2.3 ± 2.8
- lung apoptosis or permeability measurements (PBS-treated mice): did not lead to an increase in lung apoptosis or permeability measurements
- effect of early administration (early group (mut-sFasL 4 hours after LPS, euthanized 24 h)): no measurable effect
- BAL concentration of MCP-1 (late group): decrease; also recorded: reduced
- BAL concentration of MIP-1β (late group): decrease; also recorded: reduced
- BAL concentration of TNF-α (late group): decrease; also recorded: reduced
- BAL total cell counts (late group (mut-sFasL 24 h after LPS, euthanized 48 h), 100 ng/mL, 100 ng/g): decreased; also recorded: reduced
- total lung (homogenate) MPO activity (late group, doses of 30 and 100 ng/mL, 100 ng/g): significantly decreased; also recorded: reduced
- pro-injury or pro-inflammatory effects: did not have important pro-injury or pro-inflammatory effects at any dose
- pro-injury or pro-inflammatory effects (listed as sFasL with mutated stalk region): not injurious in normal lungs
